Results on six variants are retold here after PMC6978347.

To fix the notation:
B1: AtNBR1^1–94 (AtNBR1–PB1) [Arabidopsis thaliana] / MBP-tagged wild-type AtNBR1–PB1^1–94 [Arabidopsis thaliana] (parent)
chain 1: MESTANALVVKVSYGGVLRRFRVPVKANGQLDLEMAGLKEKIAALFNLSADAELSLTYSDEDGDVVALVDDNDLFDVTNQRLKFLKINVNAGVS
chain 2: B1 chain 1

Variants of B1 are the subject of the assay. Kind of assay: pull-down (MBP pulldown, band quantification). The conditions noted are these: with MBP-tagged wild-type AtNBR1–PB1^1–94 [Arabidopsis thaliana];; read off a plot.
For chain 1 K11A, the ratio to parent was determined as 0.32.

For chain 1 D64A, the ratio to parent is 0.27.

Take chain 1 R19A R20A: the ratio to parent is 0.01.

On to chain 1 D60A D62A, for which the ratio to parent is 0.06.

Turning to chain 1 K11A D60A, the ratio to parent turned out to be 0.04. To chain 1 E61A belongs 0.22.
